# Assay results reported in patent publication US8440804B2, “Polypeptides having modulatory effects on cells” (Ecole Normale Superieure de Lyon, priority 2006, dated 2013).
# B1: R5G52: peptide aptamer: variable region IQSPPESPTG in human thioredoxin (SEQ ID 32) (protein)
# chain: MVKQIESKTAFQEALDAAGDKLVVVDFSATWCGPIQSPPESPTGGPCKMIKPFFHSLSEKYSNVIFLEVDVDDCQDVASECEVKCMPTFQFFKKGQKVGEFSGANKEKLEATINELV
# modifications: left off: large carriers
# Experiments:
# MCF-7 cells = assay: Colony formation assay (cell proliferation assay, crystal violet); assay type: cell-based; conditions: MCF-7, continuous expression 2 weeks, compared to AptaLib and human thioredoxin
# Protocol: (§1) (B) Colony formation assays. Hela or MCF-7 cells were transfected with plasmids directing the stable expression of the Cdk inhibitor p21, a library of peptide aptamers from pBK1 (AptaLib), Human thioredoxin (HTRX), and peptide aptamers R7G44, R5G42, R5G52. The cells were cultured for two weeks and the colonies were stained with crystal violet.
# (§2) The inventors wished to establish the antiproliferative activity of these peptide aptamers using alternative cellular models and a non-retroviral vector to express individually each aptamer. They cloned the aptamer coding genes into a vector bearing a hygromycin selection marker. They also subcloned the pBK1 library into this vector, to create “AptaLib”. They continuously expressed the aptamers, the empty thioredoxin scaffold or AptaLib in Hela and MCF-7 cells for 2 weeks and they stained the cells that grew. […] These aptamers may originate from the remaining background of slowly proliferating cells during the seventh screening iteration, independently of the expressed aptamers. […] This could be due to the fact that the CMTMR assay is more sensitive in detecting modest antiproliferative effects than the colony formation assay or that some peptide aptamers somehow enhance the CMTMR labeling of their host cells.
# (§3) To stably express peptide aptamers in mammalian cells, the episomal eukaryotic expression vector pCEP4 that bears a CMV promoter and a hygromycin selection marker (InVitrogen) was used. Aptamer coding sequences were PCR amplified using the oligonucleotides
# (§4) that contained a stop codon. The PCR products were digested with NheI and NotI and ligated into NheI/NotI-cut pCEP4 to create pEA-aptamer plasmids. 3×10^5 cells/well were plated in 6-well plates and transfected 24 h after using Jet PEI (Qbiogen), 3.7 μg pEA-aptamer plasmids and 0.3 μg pEGFP-C1 (Clontech) to monitor transfection. Hygromycin (InVitrogen) was added at 200 μg/ml two days later and the cells were cultured for 2 weeks, renewing the medium twice a week. The cells were then rinsed in PBS and were fixed and stained by incubating 30 min in crystal violet (0.05% crystal violet, 20% ethanol, 0.37% formaldehyde). Excess crystal violet was removed by washing with water. In Vitro Phosphatase Assay
# Hela cells = assay: as above; assay type: cell-based; conditions: continuous expression 2 weeks, compared to AptaLib and human thioredoxin
# Protocol: as §1, §2, §3, §4
# CNA = assay: Yeast two-hybrid assay; assay type: binding, human; conditions: mating assay, LexA-aptamer fusions
# Text: (§5) (A) Yeast two-hybrid mating assay. TB50α yeast were co-transformed with pSH18-34T (bearing a lacZ reporter gene) and plasmids directing the expression of LexA alone or in fusion with peptide aptamers R5G42, R7G44 or R5G52. MB210a yeast were transformed with the selected cDNA library plasmids directing the expression of CNAβ, CNAγ, and NS5ATP2 truncated proteins. To obtain negative controls, MB210a yeast were also transformed with the empty prey plasmid (pJG4-5) and with pJG4-5 directing the expression of Ras and FKBP12 prey proteins. To obtain a positive control, MB210a yeast were transformed with pJG4-5 directing the expression of RG22 peptide aptamer prey fusion protein that interacts with LexA in the context of most LexA fusion proteins.
# (§6) The inventors set out to map the R5G42 binding site on CNA. The CNA interacting clones selected in the yeast two-hybrid experiments corresponded to the carboxy-terminal regions of the beta and gamma isoforms, encompassing the calmodulin-binding domain and the auto-inhibitory domain (see FIG. 3B). […] The LexA-R5G52 bait protein may thus not be properly expressed and/or folded in this yeast two-hybrid setting.
# The inventors explored the ability of R5G42 mutants having a one amino acid change as compared to R5G42, to bind to CNA beta and gamma C-Terminal fragments (FIG. 3b) and to NS5A-TP2. To this end, they proceeded to yeast-two hybrid assays as in example 3. CNA beta and gamma C-Terminal fragments (FIG. 3b) and NS5A-TP2 were cloned in three different plasmids (pSH18-34, pJK103 and pRB18-40), which differed from each other in the level of sensitivity of their promoter to the bait/prey complex formation, pSH18-34 having the highest sensitivity and pRB18-40 having the lowest.
# The 5′ end of RH6 (upper case) matches part of the HA epitope tag and the 5′ ends of RH4, RH3 and RH7 (upper case) match the 5′ extremity of the ADH terminator. The PCR reactions was performed using pCMV-SPORT6-CnAβ as a template. CnAβCter Δ1, Δ2, CaM were constructed by combining oligonucleotides RH6/RH4, RH6/RH3, RH6/RH7, respectively. […]
# [1] = test system: Bad phosphorylation (phosphatase activity of calcineurin in cells); assay: Monitoring of Bad phosphorylation in HeLa cells (western blot); assay type: cell-based; conditions: transient expression in human cells
# Protocol: (B) Monitoring of BAD phosphorylation in cultured cells. Hela-Tet cells were transfected with plasmids directing the transient expression of BAD, CNAβ, CNB and peptide aptamers R5G42, R5G52 or R7G44. Transfected cells were treated or not with 500 nM FK506. The expression level of BAD and the phosphorylation of serine 112 and 136 residues were monitored by western blot experiments using specific antibodies.
# The inventors set out to confirm this finding in human cells. Bad is a key pro-apoptotic protein whose activity is tightly regulated by its phosphorylation status, itself controlled by the balanced activity of several protein kinases and calcineurin. Therefore, the phosphatase activity of calcineurin in cells can be monitored by examining Bad phosphorylation. HeLa cells were transfected with plasmids directing the expression of Bad, CNAβ, CNB and either R5G42, R5G52 or R7G44.
# The peptide aptamer coding genes were cloned into pPEAt (a pCEP4-based vector that bears a tetracyclin-inducible promoter and a hygromycin resistance gene), as described above (“cell proliferation assay”).
# 4×10^5 Hela-tet cells/well were seeded in a 6-well plate 24 h before transfection. […] The lysates were centrifuged to remove cellular debris and the protein content was quantified using the microBCA protein assay kit (Pierce). […]
# [2] = test system: CNA fragments (CNA constructs CNA1-CNA11); assay: Further yeast two-hybrid binding assays (higher sensitivity); parameters: species or system human
# Text: FIG. 14. Specificity of aptamers according to the invention for CNA and NS5A-TP2 Interaction matrix between peptide aptamers R5G42, C2, C7, C8, N9, R5G44 and R5G52 with CNA constructs CNA1-CNA8 (A) CNA9-11 (B) and NS5A-TP2 (C). An interaction phenotype between CNA3/CNA 11, which both contain the Calmodulin binding domain (CaM) and the auto-inhibitory domain (Al) but not the CNB binding domain (CNB) and the aptamers R5G42, C2, C7, C8 and N9 is observed in a two-hybrid assay. R5G44 and R5G52 aptamers recognize neither the CNA fragments, nor NS5A-TP2. Only aptamers R5G42 and N9 recognize NS5A-TP2.
# The inventors proceeded to further yeast two-hybrid binding assays between peptide aptamers R5G42 (SEQ ID 22), C2 (SEQ ID 23), C7 (SEQ ID 27), C8 (SEQ ID 28), N9 (SEQ ID 33), R5G44 and R5G52 with CNA constructs CNA1-CNA8 (FIG. 14A), CNA9-CNA11 (FIG. 14B) and NS5A-TP2 (SEQ ID 15) (FIG. 14C). The sensitivity of this yeast two-hybrid assay was higher than in the experiment reported above.
# peptide aptamer RG22 = assay: Yeast two-hybrid mating assay, positive control of interaction; assay type: binding; conditions: RG22 interacts with LexA in most LexA fusion proteins
# Text: as §5, §6
# The 5′ end of RH6 (upper case) matches part of the HA epitope tag and the 5′ ends of RH4, RH3 and RH7 (upper case) match the 5′ extremity of the ADH terminator. The PCR reactions was performed using pCMV-SPORT6-CnAβ as a template. […]
molecule,measurement,setting,value
B1,inhibition of cell proliferation (colony formation),MCF-7 cells,significantly inhibited the proliferation
same,inhibition of cell proliferation (colony formation),Hela cells,significantly inhibited the proliferation
same,yeast two-hybrid interaction phenotype with CNA,CNA,did not show an interaction phenotype
same,Bad phosphorylation levels,[1],does not affect Bad phosphorylation levels
same,recognition of the CNA fragments,[2],recognized neither the CNA fragments
same,yeast two-hybrid interaction phenotype,peptide aptamer RG22,did not show an interaction phenotype
